Article PMC8471396
Several values for one entry are separate records, joined by “and”; a condition that tells them apart may be missing. Equal entries are not always repeated.

How the values were obtained:
[1] = target: succinate-acetate permease (SatP) from Citrobacter koseri ATCC BAA-895 (Citrobacter koseri ATCC BAA-895); test: cross-linking; SatP in DOPC/DOPG liposomes, 10 uM protein in 20 mM HEPES pH 7.3; 0.5 mM BS3 (DMSO as control), room temperature, 1 h; 4-20% gradient SDS-PAGE
[2] = target: succinate-acetate permease (SatP) from Citrobacter koseri ATCC BAA-895 (Citrobacter koseri ATCC BAA-895); test: SDS-PAGE and Western blot of oligomer bands; SatP in SMA native nanodiscs from E. coli membranes, after the nickel affinity column; no cross-linker; anti-His Western blot

stoichiometry N [1]: 6 and 5 and 4
stoichiometry N [2]: 6
Substance: succinate-acetate permease (SatP) from Citrobacter koseri ATCC BAA-895 (natural protein)
